Positions count from the first letter of the chain named. Names may count otherwise.

The target in this assay is Alexa-Fluor-488-conjugated recombinant hCD19-hFc (Homo sapiens, UniProt P15391, Alexa Fluor 488 conjugate). Put plainly: flow cytometry on cells. On the technique in general: A flow cytometer gives signals particle by particle.
Chain of Alexa-Fluor-488-conjugated recombinant hCD19-hFc (P15391 20-291): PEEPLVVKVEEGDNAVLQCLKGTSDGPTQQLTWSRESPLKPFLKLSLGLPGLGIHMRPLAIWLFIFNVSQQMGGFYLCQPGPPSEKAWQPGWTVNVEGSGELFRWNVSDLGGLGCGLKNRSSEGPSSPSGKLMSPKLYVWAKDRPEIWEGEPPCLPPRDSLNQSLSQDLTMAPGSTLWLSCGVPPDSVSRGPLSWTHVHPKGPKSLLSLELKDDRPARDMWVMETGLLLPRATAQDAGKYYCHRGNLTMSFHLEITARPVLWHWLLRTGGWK

B1: FMC63^Y261A CAR on CAR T cells (receptor)
VH: EVKLQESGPGLVAPSQSLSVTCTVSGVSLPDYGVSWIRQPPRKGLEWLGVIWGSETTYYNSALKSRLTIIKDNSKSQVFLKMNSLQTDDTAIYYCAKHYYAGGSYAMDYWGQGTSVTVSS
VL: DIQMTQTTSSLSASLGDRVTISCRASQDISKYLNWYQQKPDGTVKLLIYHTSRLHSGVPSRFSGSGSGTDYSLTISNLEQEDIATYFCQQGNTLPYTFGGGTKLEIT
As for B1, the binding result was “binds”.

B2: SJ25C1^WT CAR (SJ25C1 scFv, CD28, CD3-zeta) on CAR T cells (receptor)
VH: EVKLQQSGAELVRPGSSVKISCKASGYAFSSYWMNWVKQRPGQGLEWIGQIYPGDGDTNYNGKFKGQATLTADKSSSTAYMQLSGLTSEDSAVYFCARKTISSVVDFYFDYWGQGTTVTVSS
VL: DIELTQSPKFMSTSVGDRVSVTCKASQNVGTNVAWYQQKPGQSPKPLIYSATYRNSGVPDRFTGSGSGTDFTLTITNVQSKDLADYFCQQYNRYPYTSGGGTKLEIK
Take B2: the binding result is listed as “binds”.

B3: SJ25C1^I120V CAR on CAR T cells (receptor)
VH: B2 VH with I101V
VL: B2 VL
On to B3, for which the binding result is “binds”.

B4: SJ25C1^W52F CAR on CAR T cells (receptor)
VH: B2 VH with W33F
VL: B2 VL
For the molecule B4, the binding result is listed as “binds”.

The values above are taken from publication PMC10228544 (Science immunology, 2023).
